Measurements taken from paper PMC7215387, “Comparison of Target Recognition by TRAF1 and TRAF2” (International Journal of Molecular Sciences, 2020).

Legend:
TRAF1 = biological target: T1, TRAF1 (Homo sapiens, UniProt Q13077); assay: Native-PAGE complex formation with TRAF1; type: binding; details: 8% to 25% acrylamide gradient gels, Coomassie; 1 h at 4 °C; TRAF1 TRAF domain (220-416)
T1 construct: the TRAF1 TRAF domain (amino acid residues 220-416); 6xHis (C); made in house; host or cells: E. coli BL21 (DE3)
T1 sequence (Q13077 220-416): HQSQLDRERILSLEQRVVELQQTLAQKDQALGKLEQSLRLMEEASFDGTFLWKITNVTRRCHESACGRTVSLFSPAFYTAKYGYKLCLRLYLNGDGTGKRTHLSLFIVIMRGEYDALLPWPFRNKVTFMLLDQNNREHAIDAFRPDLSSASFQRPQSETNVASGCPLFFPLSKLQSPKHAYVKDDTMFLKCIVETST
Description: TRADD is a well-known regulator of the TRAF function. The death domain located at the C-terminus of TRADD interacts with death-domain containing receptors and adaptor proteins including TNFR, receptor interacting protein 1 (RIP1) and Fas-associated death domain protein (FADD), while the N-terminal domain of TRADD (TRADD-N) interacts with the TRAF domain of TRAF2 (Figure 2a). Although several indirect interactions between TRAF1 and TRADD have been described, a direct interaction and direct analyses between TRAF1 and TRADD have not been reported. To directly study their interactions and binding properties, which may provide important clues for understanding TRAF-mediated signaling by TRADD, TRAFs and TRADD-N were purified, and initial interaction testing was performed by Native-PAGE. […] Although TRAF1 did interact with TRADD-N, this interaction was not as tight as with TRAF2 (Figure 2b). To further confirm this association, the interaction between the TRAFs and TRADD-N was further tested by size-exclusion chromatography. […]
The formation of complexes was assayed by native (non-denaturing) PAGE conducted on a PhastSystem (GE Healthcare) with pre-cast 8% to 25% acrylamide gradient gels (GE Healthcare). […] Complex formation was evaluated based on the appearance of newly formed bands or the disappearance of bands that were detected in single control protein bands.

TRAF2 S454A mutant = assay: Isothermal titration calorimetry (ITC), TRAF2 S454A mutant; type: binding; details: Supplementary Figure S1
Method: The binding affinities between TRADD-N and TRAF1 or TRAF2 were further quantitatively analyzed using surface plasmon resonance (SPR) experiments (Figure 3a,b). For the SPR experiment, each purified 6xHis-tagged TRAF1 and TRAF2 was coupled to Ni-NTA sensor chips using a His-tag affinity system. Different concentrations of TRADD-N protein, from 0.39 to 3.125 μM, were analyzed for binding to TRAF1 or TRAF2. […] Given their interaction patterns and affinity differences in complex formation, we modeled the structure of the TRAF1:TRADD-N complex by docking TRADD-N to a previously solved TRAF1 structure based on the TRAF2:TRADD-N complex to better understand the affinity differences (Figure 3c,d). According to the previously determined structure of the TRAF2:TRADD-N complex, two distinct binding regions, Region I and II, were identified (Figure 3e). The specific residues from TRAF2 that contributed to the interaction in Region I were T401, H406, L471, and P474. The interaction-contributing residues on TRAF2 in Region II were D445, R448, P449, D450, S454 and G468. All residues in TRAF2 that participated in the interaction with TRADD-N were conserved in TRAF1, except for S454, which was replaced by alanine in TRAF1 (Figure 3f). […]
A NanoITC (TA Instruments) was used for isothermal titration calorimetry experiments. […] Binding isotherms were analyzed by using the software provided by TA Instruments. […]

- Kd (TRAF2 S454A mutant): ~55 nM
B1: TRADD-N: N-terminal domain of TRADD (TRADD-N, amino acid residues 1-163) (protein)
chain: MAAGQNGHEEWVGSAYLFVESSLDKVVLSDAYAHPQQKVAVYRALQAALAESGGSPDVLQMLKIHRSDPQLIVQLRFCGRQPCGRFLRAYREGALRAALQRSLAAALAQHSVPLQLELRAGAERLDALLADEERCLSCILAQQPDRLRDEELAELEDALRNLK
modifications: left off: His6 (from the vector pET24a), C-terminal, state not stated
- Native-PAGE band change on incubation with TRAF1 (TRAF1): only a small portion of the TRADD-N band disappeared
